Measured values: patent publication US20200181277A1 (Genmab, published 2020)
Changes are numbered by the printed parent chain. Names may count otherwise. One block for each binder: values may come before it.

Columns and labels:
human CD40 = human CD40 (human, UniProt P25942 21-277); assay: cell-based or functional assay
purified human C1q [1] = target: T1, purified human C1q (human, UniProt P02745 23-245; P02746 28-253; P02747 29-245); assay: C1q binding ELISA: plate coated with 1 µg/mL antibody, purified C1q titrated 0.010-30 µg/mL; SD 0.8, n 3
T1 construct: Purified C1q, Quidel Cat # A400; multimer of A, B and C chains
Procedure: (§1) A binding ELISA was performed to evaluate the effect of different substitutions on C1q binding. […] Plates were washed and blocked for 1 hour at RT with 200 μL/well 0.5×PBS supplemented with 0.025% Tween 20 and 0.1% gelatin while shaking. […] The reaction was stopped by the addition of 100 μL 2% oxalic acid. Absorbance was measured at 405 nm in a BioTek EL808 Microplate Reader (BioSPX). Log transformed data were analyzed by fitting sigmoidal dose-response curves with variable slope using GraphPad Prism software.

purified human C1q [2] = target: T1, purified human C1q; assay: C1q binding ELISA (Example 6): plate coated with 1 µg/mL antibody, purified C1q titrated; SD 0.1, n 3
Procedure: as §1

purified human C1q [3] = target: T1, purified human C1q; assay: C1q binding ELISA (Example 6): plate coated with 1 µg/mL antibody, purified C1q titrated; SD 3.9, n 3
Procedure: as §1

purified human C1q [4] = target: T1, purified human C1q; assay: C1q binding ELISA: plate coated with 1 µg/mL antibody, purified C1q titrated 0.010-30 µg/mL; SD 0.1, n 3
Procedure: as §1

purified human C1q [5] = target: T1, purified human C1q; assay: C1q binding ELISA: plate coated with 1 µg/mL antibody, purified C1q titrated 0.010-30 µg/mL; SD 0.2, n 3
Procedure: as §1

human 4-1BB = human 4-1BB (human, UniProt Q07011 24-255); assay: cell-based or functional assay
Sequence of human 4-1BB (Q07011 24-255): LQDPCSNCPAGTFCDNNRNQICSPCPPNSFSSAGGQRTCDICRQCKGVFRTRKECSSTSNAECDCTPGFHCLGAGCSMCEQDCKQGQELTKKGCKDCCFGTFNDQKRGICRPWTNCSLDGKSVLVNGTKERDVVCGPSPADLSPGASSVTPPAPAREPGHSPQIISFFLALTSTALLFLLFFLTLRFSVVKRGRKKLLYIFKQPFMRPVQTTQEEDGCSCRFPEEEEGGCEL

Sequence of human CD40 (P25942 21-277): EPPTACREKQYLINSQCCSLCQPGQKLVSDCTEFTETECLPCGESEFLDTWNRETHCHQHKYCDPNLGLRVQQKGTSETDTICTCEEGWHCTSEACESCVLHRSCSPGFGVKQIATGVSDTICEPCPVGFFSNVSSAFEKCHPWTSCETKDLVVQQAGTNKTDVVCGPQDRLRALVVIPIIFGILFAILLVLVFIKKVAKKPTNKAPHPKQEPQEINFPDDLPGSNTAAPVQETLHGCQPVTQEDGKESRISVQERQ

CD40 response, luciferase reporter cells, EC50 (human CD40): 0.187 µg/mL
B1: IgG1-CD40-CP870893 (antibody)
heavy: not shown
VL: DIQMTQSPSSVSASVGDRVTITCRASQGIYSWLAWYQQKPGKAPNLLIYTASTLQSGVPSRFSGSGSGTDFTLTISSLQPEDFATYYCQQANIFPLTFGGGTKVEIK

CD40 response, luciferase reporter cells, EC50 (human CD40): 0.0459 µg/mL
B2: IgG1-CD40-CP870893-K326W/E333S/E430G (antibody)
heavy: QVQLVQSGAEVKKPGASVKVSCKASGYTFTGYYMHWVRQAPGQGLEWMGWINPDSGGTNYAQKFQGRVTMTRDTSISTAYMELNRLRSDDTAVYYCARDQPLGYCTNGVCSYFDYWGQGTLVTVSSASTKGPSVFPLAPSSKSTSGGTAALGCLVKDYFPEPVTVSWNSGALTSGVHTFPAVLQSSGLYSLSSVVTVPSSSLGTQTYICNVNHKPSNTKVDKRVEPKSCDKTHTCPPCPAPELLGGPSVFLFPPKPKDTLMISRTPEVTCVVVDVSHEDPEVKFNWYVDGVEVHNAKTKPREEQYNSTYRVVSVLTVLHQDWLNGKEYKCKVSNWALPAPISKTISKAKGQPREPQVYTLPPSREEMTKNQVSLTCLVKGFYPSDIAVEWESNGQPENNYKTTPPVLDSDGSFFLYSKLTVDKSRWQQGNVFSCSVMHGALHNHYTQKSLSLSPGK
VL: B1 VL

CD40 response, luciferase reporter cells, EC50 (human CD40): 3.36 µg/mL
B3: IgG1-CD40-SGN40 (antibody)
heavy: not shown
VL: DIQMTQSPSSLSASVGDRVTITCRSSQSLVHSNGNTFLHWYQQKPGKAPKLLIYTVSNRFSGVPSRFSGSGSGTDFTLTISSLQPEDFATYFCSQTTHVPWTFGQGTKVEIK

CD40 response, luciferase reporter cells, EC50 (human CD40): 0.018 µg/mL
B4: IgG1-CD40-SGN40-K326W/E333S/E430G (antibody)
heavy: EVQLVESGGGLVQPGGSLRLSCAASGYSFTGYYIHWVRQAPGKGLEWVARVIPNAGGTSYNQKFKGRFTLSVDNSKNTAYLQMNSLRAEDTAVYYCAREGIYWWGQGTLVTVSSASTKGPSVFPLAPSSKSTSGGTAALGCLVKDYFPEPVTVSWNSGALTSGVHTFPAVLQSSGLYSLSSVVTVPSSSLGTQTYICNVNHKPSNTKVDKRVEPKSCDKTHTCPPCPAPELLGGPSVFLFPPKPKDTLMISRTPEVTCVVVDVSHEDPEVKFNWYVDGVEVHNAKTKPREEQYNSTYRVVSVLTVLHQDWLNGKEYKCKVSNWALPAPISKTISKAKGQPREPQVYTLPPSREEMTKNQVSLTCLVKGFYPSDIAVEWESNGQPENNYKTTPPVLDSDGSFFLYSKLTVDKSRWQQGNVFSCSVMHGALHNHYTQKSLSLSPGK
VL: B3 VL

CD40 response, luciferase reporter cells, EC50 (human CD40): 0.336 µg/mL
B5: IgG1-CD40-SGN40-E430G (antibody)
heavy: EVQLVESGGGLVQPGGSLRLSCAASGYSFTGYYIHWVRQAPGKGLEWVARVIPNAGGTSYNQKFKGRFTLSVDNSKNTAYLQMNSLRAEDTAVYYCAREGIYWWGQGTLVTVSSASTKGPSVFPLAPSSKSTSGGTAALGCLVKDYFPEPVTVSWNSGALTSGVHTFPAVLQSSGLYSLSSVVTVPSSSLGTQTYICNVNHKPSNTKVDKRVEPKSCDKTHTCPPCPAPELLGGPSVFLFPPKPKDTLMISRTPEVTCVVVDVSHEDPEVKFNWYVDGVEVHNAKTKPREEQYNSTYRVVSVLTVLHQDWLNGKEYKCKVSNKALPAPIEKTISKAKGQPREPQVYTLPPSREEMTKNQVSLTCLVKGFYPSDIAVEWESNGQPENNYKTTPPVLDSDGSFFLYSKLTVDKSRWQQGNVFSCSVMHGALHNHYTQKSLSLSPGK
VL: B3 VL

EC50 (purified human C1q [1]): 1.9 µg/mL
B6: IgG1-hDR5-01-G56T-E333A/P396L/E430G (antibody)
heavy: EVQLQQSGAEVVKPGASVKLSCKASGFNIKDTFIHWVKQAPGQGLEWIGRIDPANTNTKYDPKFQGKATITTDTSSNTAYMELSSLRSEDTAVYYCVRGLYTYYFDYWGQGTLVTVSSASTKGPSVFPLAPSSKSTSGGTAALGCLVKDYFPEPVTVSWNSGALTSGVHTFPAVLQSSGLYSLSSVVTVPSSSLGTQTYICNVNHKPSNTKVDKRVEPKSCDKTHTCPPCPAPELLGGPSVFLFPPKPKDTLMISRTPEVTCVVVDVSHEDPEVKFNWYVDGVEVHNAKTKPREEQYNSTYRVVSVLTVLHQDWLNGKEYKCKVSNKALPAPIAKTISKAKGQPREPQVYTLPPSREEMTKNQVSLTCLVKGFYPSDIAVEWESNGQPENNYKTTPLVLDSDGSFFLYSKLTVDKSRWQQGNVFSCSVMHGALHNHYTQKSLSLSPGK
light: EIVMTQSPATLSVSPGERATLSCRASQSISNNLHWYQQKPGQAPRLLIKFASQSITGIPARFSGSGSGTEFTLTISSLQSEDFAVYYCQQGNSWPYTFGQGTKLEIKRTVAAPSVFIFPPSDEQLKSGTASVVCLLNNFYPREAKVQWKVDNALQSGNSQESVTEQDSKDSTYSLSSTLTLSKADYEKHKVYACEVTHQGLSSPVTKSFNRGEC
notes: IgG1,kappa

EC50 (purified human C1q [2]): 0.5 µg/mL
B7: IgG1-hDR5-01-G56T-S267E/H268F/S324T/E430G (antibody)
heavy: B6 heavy with S268E, H269F, S325T, A334E, L397P
light: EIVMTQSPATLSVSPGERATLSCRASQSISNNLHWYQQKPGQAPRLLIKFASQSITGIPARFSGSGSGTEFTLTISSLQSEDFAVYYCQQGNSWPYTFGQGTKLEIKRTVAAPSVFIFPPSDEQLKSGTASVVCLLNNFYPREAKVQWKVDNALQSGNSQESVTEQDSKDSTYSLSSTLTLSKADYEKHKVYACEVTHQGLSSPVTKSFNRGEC
notes: IgG1,kappa

EC50 (purified human C1q [3]): 11.4 µg/mL
B8: IgG113F-hDR5-01-G56T-E430G (antibody)
heavy: B6 heavy with K275Q, N277K, Y301F, A334E, A340T, N385S, K393N, L397P, V398M, V423I
light: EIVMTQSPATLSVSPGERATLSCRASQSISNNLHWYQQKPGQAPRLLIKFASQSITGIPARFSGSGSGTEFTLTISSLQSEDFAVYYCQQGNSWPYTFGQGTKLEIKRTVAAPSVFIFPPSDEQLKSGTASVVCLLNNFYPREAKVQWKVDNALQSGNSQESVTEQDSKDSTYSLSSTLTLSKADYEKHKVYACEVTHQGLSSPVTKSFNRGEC
notes: also called IgG113F-E430G

EC50 (purified human C1q [4]): 0.6 µg/mL
B9: IgG1-hDR5-01-G56T-K326A/P396L/E430G (antibody)
heavy: B6 heavy with K327A, A334E
light: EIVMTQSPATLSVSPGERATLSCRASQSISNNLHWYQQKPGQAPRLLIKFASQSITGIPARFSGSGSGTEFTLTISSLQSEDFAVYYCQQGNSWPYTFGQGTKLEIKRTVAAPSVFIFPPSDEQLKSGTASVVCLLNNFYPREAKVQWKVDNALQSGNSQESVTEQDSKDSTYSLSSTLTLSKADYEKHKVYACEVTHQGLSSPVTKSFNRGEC
notes: IgG1,kappa

EC50 (purified human C1q [4]): 0.8 µg/mL
B10: IgG1-hDR5-01-G56T-K326A/E333A/E430G (antibody)
heavy: B6 heavy with K327A, L397P
light: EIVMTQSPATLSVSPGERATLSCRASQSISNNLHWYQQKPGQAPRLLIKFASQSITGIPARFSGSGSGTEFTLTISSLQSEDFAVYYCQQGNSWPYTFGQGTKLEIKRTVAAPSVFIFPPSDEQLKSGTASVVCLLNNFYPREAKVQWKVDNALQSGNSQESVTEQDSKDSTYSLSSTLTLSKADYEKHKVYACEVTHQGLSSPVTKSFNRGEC
notes: IgG1,kappa

EC50 (purified human C1q [5]): 1.3 µg/mL
B11: IgG1-hDR5-01-G56T-K326A/E333A/P396L/E430G (antibody)
heavy: B6 heavy with K327A
light: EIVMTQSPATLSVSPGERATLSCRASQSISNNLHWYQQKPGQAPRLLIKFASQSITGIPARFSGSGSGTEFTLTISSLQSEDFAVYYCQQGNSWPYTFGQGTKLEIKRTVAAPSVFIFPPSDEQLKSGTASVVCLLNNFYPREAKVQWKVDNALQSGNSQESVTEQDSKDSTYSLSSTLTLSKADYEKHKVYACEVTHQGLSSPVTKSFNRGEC
notes: IgG1,kappa

4-1BB signaling, luciferase reporter Jurkat cells, EC50 (human 4-1BB): 0.0329 µg/mL
B12: IgG1-BMS-663513-K326W/E333S/E430G (antibody, V domains shown)
VH: QVQLQQWGAGLLKPSETLSLTCAVYGGSFSGYYWSWIRQSPEKGLEWIGEINHGGYVTYNPSLESRVTISVDTSKNQFSLKLSSVTAADTAVYYCARDYGPGNYDWYFDLWGRGTLVTVSS
VL: EIVLTQSPATLSLSPGERATLSCRASQSVSSYLAWYQQKPGQAPRLLIYDASNRATGIPARFSGSGSGTDFTLTISSLEPEDFAVYYCQQRSNWPPALTFGGGTKVEIK
